Key:
SAA = assay: Mouse PD preference study: plasma SAA; format: in vivo, mice; details: at equivalent or superior Reg3β Cmax: 60K-PEG-IL22-D109C 0.1 mg/kg vs 60K-PEG-IL22-P120C 0.3 mg/kg vs IL-22-Fc 1 mg/kg, s.c.
Protocol: Based on the in vitro preference results and preliminary PD screening results, the molecules 60k-PEG-IL22-D109C and 60k-PEG-IL22-P120C were selected. PD testing was performed in three mice per dose group at different dose levels according to the method described in Example 14, including the pharmacodynamic-related molecule Reg3β and the inflammation-related molecule SAA. The control was IL-22-Fc. Blood samples were collected before dosing and at 4, 24, 48, 72, 96, 144, 192, 264, and 336 hours after dosing. Plasma was separated using anticoagulated blood samples. For the control molecules wt IL-22 and hB3-his, samples were collected only up to 96 hours.
The detection method for SAA was as follows: a kit containing detecting antibody pairs and positive controls (Abcam, Ab216059) was used to detect SAA concentrations in appropriately diluted plasma samples. The assay was performed according to the manufacturer's instructions. Sa-HRP (Pierce 21126) was used for conjugation. After washing, tetramethylbenzidine peroxidase substrate (TMB, Surmodics, TMBS-1000-01) was added for color development for 10 minutes. The reaction was terminated with 2 M sulfuric acid, and the plate was read at 450 nm with 630 nm as the reference using a microplate reader. SAA was measured before dosing and at 24, 48, 72, 96, and 144 hours after dosing. The original SAA concentration in each sample was calculated. […]

[1] = Mouse PK, plasma concentration by ELISA; format: in vivo; details: single s.c. 1 mg/kg, male Balb/C mice
Protocol: Male Balb/C mice (n = 4 per group) were administered a single subcutaneous injection at a dose of 1 mg/kg. Blood samples were collected before dosing and at 4 (no samples were collected at this time point for 60k-PEG-IL22-D109C and 60k-PEG-IL22-P120C), 8, 24, […], 48, 72, 96, and 120 hours after dosing. Anticoagulated blood was used to prepare plasma.
The concentrations of each test candidate in plasma were quantified by ELISA. Anti-IL22 Antibody (Sino Biological, 13059-MM24), diluted in PBS to 2 µg/mL, was used for coating. Standard curves of each test candidate and plasma samples were diluted to fall within the linear range of detection. Recombinant Anti-IL22 Antibody (Sino Biological, 13059-R034-H) was used for detection. The original concentration of each test candidate in the samples was calculated using a four-parameter fit of the standard curve for each test candidate. Pharmacokinetic parameters of each test candidate in mouse plasma were analyzed (Figure 12). Table 13. Dosing information for the mouse PK study

[2] = tested on: DSS-induced mouse acute colitis model; assay: Mouse DSS-induced colitis efficacy model; format: in vivo, Balb/C mice
From the text: Balb/C mice were used to evaluate efficacy in a DSS-induced mouse acute colitis model. DSS refers to Dextran Sulfate Sodium Salt (MW: 36,000-50,000). When added to drinking water at an appropriate concentration, DSS disrupts intestinal epithelial cells and induces acute inflammatory bowel disease (IBD) in mice. Therefore, a 4% DSS-induced mouse IBD model was used to evaluate the potential therapeutic efficacy of the test candidates.
Male Balb/C mice were allowed free access to drinking water containing 4% DSS until the average body weight of the model group decreased by approximately 15%. Fresh drinking water was then provided, followed by a 2-day recovery period. Body weight and the severity of loose stool/hematochezia for each mouse were monitored throughout the study (Figure 13), and a composite Disease Activity Index (DAI) was evaluated (Figure 14). At the endpoint, the colon of each mouse was collected and its length measured (Figure 15). The colons were photographed, rolled into a Swiss-roll configuration, fixed in 4% paraformaldehyde, dehydrated, embedded in paraffin, sectioned, and subjected to H&E staining (Figures 17-18). Histological scoring was performed on tissue morphology(Figure 16).
The dosing regimen of the test candidates was as follows (the day of DSS modeling was defined as D1, the previous day as D-1, and so on). Table 15. Dosing information for the mouse DSS-induced colitis model study
Paraffin sections of colon tissues were subjected to H&E staining and histopathological analysis. According to the actual severity of the lesions, the following scoring criteria were used: minimal (1 point), mild (2 points), moderate (3 points), and severe (4 points). Lesion area (%) scoring criteria were defined as: ≥50% (4 points), 25%-50% (3 points), 10%-25% (2 points), and ≤10% (1 point). Inflammation depth scoring criteria were defined as: epithelium (1 point), lamina propria (2 points), and muscularis mucosae (3 points). No lesion was recorded as "-". The score was calculated by summing the scores from the above three dimensions.

ear skin inflammation = details: mouse, in vivo

B1: 60K-PEG-IL22-P120C: IL-22 cysteine mutant, conjugation site 87, PEG-maleimide 60kD (conjugate)
chain: APISSHCRLDKSNFQQPYITNRTFMLAKEASLADNNTDVRLIGEKLFHGVSMSERCYLMKQVLNFTLEEVLFPQSDRFQPYMQEVVCFLARLSNRLSTCHIEGDDLHIQRNVQKLKDTVKKLGESGEIKAIGELDLLFMSLRNACI
SAA Cmax compared with IL-22-Fc (SAA): significantly lower
AUClast [1]: 105.2029 µg·h/mL
Cmax [1]: 4184.95 ng/mL
MRT [1]: 20.17 h
T1/2 [1]: 11.62 h
efficacy compared with 0.03 mg/kg IL-22-Fc (Group G6) ([2]; 0.1 mg/kg (Group G4), body weight, DAI, colon length, histological scoring): superior efficacy
colon tissue morphology (H&E histology) ([2]; 0.1 mg/kg s.c., days 4 and 6 (G4)): relatively intact
efficacy dose difference relative to IL-22-Fc ([2]; 0.1 mg/kg vs 0.03 mg/kg): 3 fold
efficacy in the mouse DSS-induced acute colitis model ([2]; body weight, DAI, colon length, histological scoring): clear efficacy
equivalent dose required to induce a comparable overall increase in ear thickness, relative to IL-22-Fc (ear skin inflammation): approximately 8 fold
